This passage reports Kd results from paper PMC5312616, “A Cholecystokinin B Receptor-Specific DNA Aptamer for Targeting Pancreatic Ductal Adenocarcinoma”.

In general, Kd refers to the concentration at which binding is half-saturated.

Series [1] deals with CCKBR (Homo sapiens) (UniProt P32239). The settings on record: cited from earlier work.
The target of series [2] is T1, CCKBR N-terminal peptide BR5-21 (human, UniProt P32239 5-21).
T1 chain: KLNRSVQGTGPGPGASL
The experiment in a line: not stated in material; Kd assay buffer and method not given in material; SELEX peptide-bead incubation 60 min at 37 C.

Read-outs that look alike come from different tables or passages of the source.

Sequence of CCKBR (Homo sapiens) (P32239 whole entry): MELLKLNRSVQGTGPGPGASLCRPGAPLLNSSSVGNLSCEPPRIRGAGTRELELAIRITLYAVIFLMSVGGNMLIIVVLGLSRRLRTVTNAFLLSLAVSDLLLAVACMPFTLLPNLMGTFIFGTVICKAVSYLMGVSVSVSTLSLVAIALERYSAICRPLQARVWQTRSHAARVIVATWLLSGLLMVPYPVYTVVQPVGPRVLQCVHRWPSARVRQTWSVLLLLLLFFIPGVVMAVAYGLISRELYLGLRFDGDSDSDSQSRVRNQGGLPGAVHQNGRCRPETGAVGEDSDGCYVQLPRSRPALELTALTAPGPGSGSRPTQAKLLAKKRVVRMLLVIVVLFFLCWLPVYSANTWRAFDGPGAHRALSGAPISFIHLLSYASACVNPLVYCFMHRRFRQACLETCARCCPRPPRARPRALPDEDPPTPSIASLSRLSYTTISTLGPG

With gastrin (from UniProt P01350), the Kd in series [1] was 1 nM.
Regarding CATGGTGCAGGTGTGGCTGGGATTCATTTGCCGGTGCTGGTGCGTCCGC (ssDNA) [AP1153 truncated (49 nt)], the Kd in series [2] is 0.206 nM.

B1: AP1153 (66 nt) (ssDNA)
DNA: CATGGTGCAGGTGTGGCTGGGATTCATTTGCCGGTGCTGGTGCGTCCGCGGCCGCTAATCCTGTTC
For the molecule B1, the Kd in series [2] (Mfold-predicted folded structure) is 0.0155 nM.
